Laboratory results: publication PMC10776578, “Epstein-Barr virus-driven B cell lymphoma mediated by a direct LMP1-TRAF6 complex” (Nature Communications, 2024)

How the values were obtained:
[1] = system: GST-LMP1_181-386; experiment: AlphaScreen PPI, TRAF6 mutants binding to LMP1; parameters: species or system Epstein-Barr virus; TRAF6 binding to LMP1 (AlphaScreen), mean: unit not given here
Protocol: (§1) Fig. 2 LMP1 binds to the receptor-interacting surface of TRAF6. a Mutations within the receptor-interacting surface of TRAF6 affect binding to LMP1. The TRAF6 mutants R392A, K469A, F471A, and Y473A were tested LMP1 in AlphaScreen PPI experiments with GST-LMP1_181-386. Data are mean values ± SD of three independent experiments. Statistics: one-way ANOVA. b TRAF6 R392A differentiates between CD40 and LMP1/RANK. AlphaScreen PPI experiments with GST-CD40_216-277. Data are mean values ± SD of three independent experiments. […] AlphaScreen PPI experiments with GST-RANK314-355. Data are mean values ± SD of four independent experiments. Statistics: one-way ANOVA. d TRAF6 mutants that fail to interact with LMP1 in PPI assays are also unable to bind cellular LMP1. HEK293 cells were co-transfected with HA-LMP1 and the indicated Flag-TRAF6 mutants. Flag-TRAF6 was immunoprecipitated (IP) via its Flag-tag and coprecipitated HA-LMP1 was detected on immunoblots by an α-HA antibody. Uncropped blots in Supplementary Fig. 6b. For statistical analysis LMP1 signals were digitalized and quantified (graph). Data are mean values ± SD of three independent experiments. […] TRAF6 recruitment is dependent on amino acids 371 − 386 of LMP1 (small panel). Confocal microscopy images show representative cells of three independent experiments. Quantitative data are mean values ± SD of ten randomly selected cells per transfection of one representative experiment (graph). Scale bars: 10 µm. Statistics: one-way ANOVA. p-values: *p ≤ 0.05, **p ≤ 0.01, ***p ≤ 0.001, ****p ≤ 0.0001. Source data and exact p-values in the Source Data file.
(§2) AlphaScreen experiments were performed in 96- or 384-well plates (Perkin Elmer, OptiPlate). In both assay formats, His-TRAF and GST-LMP1, GST-CD40, or GST-RANK proteins were incubated together in 40 µL of PBS (protein concentrations were calculated to the final reaction volume of 60 µL) supplemented with 0.5% BSA (Sigma, #A7030) and 0.1% Tween-20 (AppliChem, #A4974), for 1 h at room temperature (RT). If not indicated otherwise, standard protein concentrations were 300 nM for His-TRAF proteins and 100 nM for GST-LMP1 proteins. Ni-NTA-acceptor (Perkin Elmer, #6760619 C) and GST-acceptor (Perkin Elmer, # 6765300) beads were added each to a final concentration of 1–4 µg per mL in a final reaction volume of 60 µL and incubated for 1 h at RT in the dark. AlphaScreen PPI signals were measured in a CLARIOstar reader (BMG Labtech GmbH).

[2] = system: GST-CD40_216-277; experiment: AlphaScreen PPI, TRAF6 mutants binding to CD40; parameters: species or system human; TRAF6 binding to CD40 (AlphaScreen), mean: unit not given here
Protocol: as §1, §2

[3] = system: HA-LMP1; experiment: Coimmunoprecipitation of HA-LMP1 with Flag-TRAF6 mutants in HEK293 cells; format: cell-based, Epstein-Barr virus
Protocol: Immunoblotting was essentially performed as described. Proteins were detected on nitrocellulose membranes (Bio-Rad, #1620115) using the following primary antibodies: α−6*His-tag (clone 4A4 or 2F12, source: antibody facility of the Helmholtz Center Munich, hybridoma supernatants were used at a 1:10 dilution)[75], α-TRAF6 (H-274, Santa Cruz Biotech., #sc-7221, used at 1:1000), α-HA-tag (12CA5, Sigma-Aldrich, #11583816001, used at 0.4 µg per mL), α-IκBα (C-21, Santa Cruz Biotech., #sc-371, used at 1:500) and α-Tubulin (B-5-1-2, Santa Cruz Biotech., #sc-23948, used at 1:500). Horseradish peroxidase-coupled antibodies were used as secondary antibodies (Cell Signalling Technology, #7074 or #7076, respectively, both used at 1:5000). ECL signals were captured on X-ray films (Agfa Healthcare) and quantified by densitometry using the ImageJ software. Uncropped scans of immunoblots indicating molecular weights are provided in Supplementary Fig. 6.
HEK293 cells were transfected with 1 µg of pRK5-Flag TRAF6 plasmids, 1 µg of pCMV-HA-LMP1 and 6 µg of pRK5 per 10 cm cell culture dish using PolyFect Transfection Reagent (Qiagen, #301107) in RPMI without supplements. Cells were incubated with the plasmid transfection mix for 4 h before the medium was changed to RPMI full medium. After 24 h, the cells were lysed in NP40-lysis buffer (50 mM HEPES pH 7.5, 150 mM NaCl, 5 mM EDTA, 0.5 mM sodium orthovanadate, 0.5 mM PMSF, 0.5 mM sodium molybdate, and cOmplete protease inhibitor cocktail). Lysates were cleared by centrifugation at 15000 x g for 10 min at 4 °C, and the protein concentration was adjusted to 1 mg per mL. For immunoprecipitation 4 mL of lysate was incubated with the α-Flag antibody 6F7 (Sigma-Aldrich, #F3165; covalently coupled to protein-G-Sepharose) for 1 h at 4 °C. The beads were pelleted at 15000 x g for 30 seconds at 4 °C, washed twice with NP40-lysis buffer, and analyzed by immunoblotting.

[4] = system: NF-κB in TRAF6^-/- MEFs; experiment: NF-κB reporter assay, TRAF6 rescue of CTAR2 signalling; format: cell-based, mouse; parameters: unit not given here
Protocol: TRAF6^−/− cells (6 × 10^4) were seeded per well of a 6-well plate in DMEM full medium the day before transfection. Cells were transfected with 2 µg of the indicated pCMV-HA-LMP1 plasmids together with 0.5 µg of pRK5-Flag-TRAF6 plasmids or empty vector, 0.05 µg of NF-κB luciferase reporter 3xκB-Luc and 0.2 µg of pPGK-Renilla housekeeping control reporter using the PolyFect transfection reagent (Qiagen)[33]. After 4 h the transfection mix was removed, and the cells were kept overnight in DMEM full medium. NF-κB reporter and Renilla control activities were measured with the Dual-Luciferase reporter assay kit (Promega, #E1910) following the manufacturer’s instructions. Samples of each lysate were analyzed for LMP1 and TRAF6 expression by immunoblotting.

B1: Y473A (protein, UniProt Q9Y4K3 1-522, looked up, variant Y473A)
TNF receptor-associated …: MSLLNCENSCGSSQSESDCCVAMASSCSAVTKDDSVGGTASTGNLSSSFMEEIQGYDVEFDPPLESKYECPICLMALREAVQTPCGHRFCKACIIKSIRDAGHKCPVDNEILLENQLFPDNFAKREILSLMVKCPNEGCLHKMELRHLEDHQAHCEFALMDCPQCQRPFQKFHINIHILKDCPRRQVSCDNCAASMAFEDKEIHDQNCPLANVICEYCNTILIREQMPNHYDLDCPTAPIPCTFSTFGCHEKMQRNHLARHLQENTQSHMRMLAQAVHSLSVIPDSGYISEVRNFQETIHQLEGRLVRQDHQIRELTAKMETQSMYVSELKRTIRTLEDKVAEIEAQQCNGIYIWKIGNFGMHLKCQEEEKPVVIHSPGFYTGKPGYKLCMRLHLQLPTAQRCANYISLFVHTMQGEYDSHLPWPFQGTIRLTILDQSEAPVRQNHEEIMDAKPELLAFQRPTIPRNPKGFGAVTFMHLEALRQRTFIKDDTLLVRCEVSTRFDMGSLRREGFQPRSTDAGV
[1]; AlphaScreen PPI
  effect of TRAF6 mutation on binding to LMP1 (in words): complete loss of TRAF6 binding
[1]; Figure 2a, mean of n = 3
  TRAF6 binding to LMP1 (AlphaScreen), mean: 1.355
[1]; Figure 2a, relative to mean wt 100, replicate 1
  TRAF6 binding to LMP1 (AlphaScreen): 0.9
[1]; Figure 2a, replicate 2
  TRAF6 binding to LMP1 (AlphaScreen): 1.6
[1]; Figure 2a, replicate 3
  TRAF6 binding to LMP1 (AlphaScreen): 1.5
[2]; AlphaScreen PPI
  effect of TRAF6 mutation on binding to CD40 (in words): complete loss of TRAF6 binding
[2]; Figure 2b, mean of n = 3
  TRAF6 binding to CD40 (AlphaScreen), mean: 0.5871
[2]; Figure 2b, relative to mean wt 100, replicate 1
  TRAF6 binding to CD40 (AlphaScreen): 0.7
[2]; Figure 2b, replicate 2
  TRAF6 binding to CD40 (AlphaScreen): 0.5
[2]; Figure 2b, replicate 3
  TRAF6 binding to CD40 (AlphaScreen): 0.5
[3]; HEK293, mean of n = 3
  coprecipitated HA-LMP1 signal (densitometry), mean: 5322536
[3]; coimmunoprecipitation
  interaction of TRAF6 mutants with LMP1 in HEK293 cells (in words): abolished the TRAF6 interaction with LMP1
[4]; with A204xAxA (CTAR2-specific signalling), replicate 1
  NF-κB reporter activity: 17.9
[4]; with A204xAxA, mean of n = 5
  NF-κB reporter activity, mean: 16.74
[4]; with A204xAxA, replicate 2
  NF-κB reporter activity: 12.1
[4]; with A204xAxA, replicate 3
  NF-κB reporter activity: 18.2
[4]; with A204xAxA, replicate 4
  NF-κB reporter activity: 20.7
[4]; with A204xAxA, replicate 5
  NF-κB reporter activity: 14.7
[4]; with A204xAxA/∆371-386 (inactive null control), replicate 1
  NF-κB reporter activity: 21.7
[4]; with A204xAxA/∆371-386, mean of n = 5
  NF-κB reporter activity, mean: 17.54
[4]; with A204xAxA/∆371-386, replicate 2
  NF-κB reporter activity: 12.1
[4]; with A204xAxA/∆371-386, replicate 3
  NF-κB reporter activity: 17.7
[4]; with A204xAxA/∆371-386, replicate 4
  NF-κB reporter activity: 21.8
[4]; with A204xAxA/∆371-386, replicate 5
  NF-κB reporter activity: 14.3
